Test results published in patent US20030148956A1 (PROCTER AND GAMBLE, published 2003).
Ends that are not written are not given here.

T1: corticotropin releasing factor 2 receptor
T1 sequence (Q13324 whole entry, species assumed, looked up): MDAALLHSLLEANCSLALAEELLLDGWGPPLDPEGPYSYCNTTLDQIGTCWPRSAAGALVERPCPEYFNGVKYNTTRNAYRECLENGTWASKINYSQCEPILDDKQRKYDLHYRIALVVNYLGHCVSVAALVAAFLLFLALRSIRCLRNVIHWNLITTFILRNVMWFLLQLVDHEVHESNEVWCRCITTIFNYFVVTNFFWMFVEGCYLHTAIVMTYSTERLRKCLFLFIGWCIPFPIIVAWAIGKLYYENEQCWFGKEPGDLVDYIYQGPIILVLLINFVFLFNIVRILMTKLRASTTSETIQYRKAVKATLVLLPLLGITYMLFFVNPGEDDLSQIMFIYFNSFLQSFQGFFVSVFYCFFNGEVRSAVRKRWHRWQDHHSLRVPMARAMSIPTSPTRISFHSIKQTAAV


Key:
[1] = target: T1, corticotropin releasing factor 2 …; assay: cell-based or functional assay
[2] = target: corticotropin releasing factor 1 receptor; assay: cell-based or functional assay

CRF2R EC50 [1] [nM]	CRF2R Emax % [1] [%]	CRF1R EC50 [2] [nM]	CRF1R Emax % [2] [%]	Binder
13.2	93.5	1000	82.6	DNPSLSIDLPLFLLRTLLELEKTQSQRERAEQNARIFARV-NH2 [SEQ ID NO 334]
8.48	–	1000	–	DNPSLSIDLPLLLLRTLLELEKTQSQRERAEQNAIIFASV-NH2 [SEQ ID NO 346]
11.7	100	100	5	IVLSLDVPIGLLQILLEQEKARAAREQATTNARILARV-NH2 [SEQ ID NO 325]
28.1	91	1000	49.5	DNPSLSIDLPLILLRTLLELEKTQSQRERAEQNARIFARV-NH2 [SEQ ID NO 335]
6	93.7	1000	86.8	DNPSLSIDLPLILLRTLLELARTQSQRERAEQNARIFARV-NH2 [SEQ ID NO 330]
9.95	100	1000	61.3	PSLSIDLPLILLRTLLELEKTQSQRERAEQNARIFARV-NH2 [SEQ ID NO 332]
28.4	100	1000	36.5	DNPSLSIDLPLLLLRTLLELEKTQSQRERAEQNAQIFAQV-NH2 [SEQ ID NO 327]
17.2	100	1000	46.6	DNPSLSIDLPLLLLRTLLELEKTQSQRERAEQNAQIFAHV-NH2 [SEQ ID NO 324]
4.3	–	650	–	PSLSIDLPLLLLRTLLELEKTQSQRERAEQNAIIFASV-NH2 [SEQ ID NO 344]
100	47.9	1000	13.2	DNPSLSIDLPQYLLRTLLELARTQSQRERAEQNAIIFASV-NH2 [SEQ ID NO 339]
11.7	95.7	1000	30.7	DNPSLSIDLPLLLLRTLLELEKTQSQRERAEQNAHIFAHV-NH2 [SEQ ID NO 328]
9.85	100	1000	78.7	PSLSIDLPLFLLRTLLELEKTQSQRERAEQNARIFARV-NH2 [SEQ ID NO 331]
33.7	100	1000	30.1	DNPSLSIDLPLLLLRTLLELEKTQSQRERAEQNANIFANV-NH2 [SEQ ID NO 326]
5.15	98.3	1000	98.4	DNPSLSIDLPLFLLRTLLELARTQSQRERAEQNARIFARV-NH2 [SEQ ID NO 329]
5.77	–	630	–	Ac-PSLSIDLPLLLLRTLLELEKTQSQRERAEQNAIIFASV-NH2 [SEQ ID NO 348]
20.2	92.2	1000	19.6	DNPSLSIDLPLQLLRTLLELEKTQSQRERAEQNAIIFASV-NH2 [SEQ ID NO 342]
23.1	96.5	1000	10.7	IVLSLDVPIGLLQKMIEIEKQEKEKQQATTNARILARV-NH2 [SEQ ID NO 322]
14.1	95	870	62	ZGPPISIDLPYHLLRKVIEIEKQEKEKQQAANNALLLDTI (C-terminal amide) [SEQ ID NO 312]
9.95	95.4	134	92.8	ZGPPISIDLPFFLLRKMIEIEKQEKEKQQAANNALLLDTI (C-terminal amide) [SEQ ID NO 318]

CRF2R EC50 [1] [nM]	CRF2R Emax % [1] [%]	CRF1R EC50 [2] [nM]	CRF1R Emax % [2] [%]	Binder
8.5	95	106	88.3	ZGPPISIDLPFFLLRKMIEIEKQEKEKQQAANNALLLATI (C-terminal amide) [SEQ ID NO 319]
10.2	94.5	222	92.3	ZGPPISIDLPFFLLRKVIEIEKQEKEKQQAANNALLLDTI (C-terminal amide) [SEQ ID NO 316]
9.3	88.3	188	100	ZGPPISIDLPFFLLRKVIEIEKQEKEKQQAANNALLLATI (C-terminal amide) [SEQ ID NO 317]
11.1	95	704	87.1	ZGPPISIDLPYHLLRKVIEIEKQEKEKQQAANNALLLATI (C-terminal amide) [SEQ ID NO 313]
10.3	99.8	978	82.4	ZGPPISIDLPYHLLRKMIEIEKQEKEKQQAANNALLLDTI (C-terminal amide) [SEQ ID NO 314]
22.4	–	1000	–	Ac-DNPSLSIDLPLLLLRTLLELEKTQSQRERAEQNAIIFASV-NH2 [SEQ ID NO 347]
19.6	100	1000	36.9	DNPSLSIDLPLLLLRTLLELEKTQSQRERAEQNAEIFAEV-NH2 [SEQ ID NO 323]
23.9	86.7	1000	36.5	DNPSLSIDLPLILLRTLLELEKTQSQRERAEQNARIFDRV-NH2 [SEQ ID NO 337]
39.7	100	1000	18.8	DNPSLSIDLPLILLRTLLELEKTQSQRERAEQNAIIFASV-NH2 [SEQ ID NO 345]
17.8	100	1000	59.9	DNPSLSIDLPLFLLRTLLELEKTQSQRERAEQNARIFDRV-NH2 [SEQ ID NO 336]
19.1	100	718	68.8	ZGPPISIDLPLQLLRKVIEIEKQEKEKQQATTNARILARV (C-terminal amide) [SEQ ID NO 320]
19.6	86.8	1000	33.8	ZGPPISIDLPFQLLRKTIEIEKQEKEKQQATTNARLLDRV (C-terminal amide) [SEQ ID NO 321]
19.3	77.5	1000	41.1	DNPSLSIDLPLLLLRTLLELEKTQSQRERAEQNARIFDRV-NH2 [SEQ ID NO 338]
8.83	95.5	850	82.3	DNPSLSIDLPLLLLRTLLELEKTQSQRERAEQNARIFARV-NH2 [SEQ ID NO 341]
9.85	96.9	1000	43.8	PSLSIDLPLLLLRTLLELEKTQSQRERAEQNARIFARV-NH2 [SEQ ID NO 333]
13.6	96.5	783	62.5	DNPSLSIDLPLFLLRTLLELEKTQSQRERAEQNAIIFASV-NH2 [SEQ ID NO 343]
7.99	100	740	96	DNPSLSIDLPLLLLRTLLELARTQSQRERAEQNARIFARV-NH2 [SEQ ID NO 340]
9.35	81.7	454	100	ZGPPISIDLPYHLLRKMIEIEKQEKEKQQAANNALLLAT (C-terminal amide) [SEQ ID NO 315]
